Experimental data from patent US10400249B2, “HPPD variants and methods of use” (priority 2014, dated 2019).

Key:
maize T0 events = test: greenhouse spray test of maize T0 events for tolerance to Cmpd. 4; format: in vivo; settings: 25 g AI/ha
soybean shoots = test: soybean transformation, greening or bleaching of shoots on isoxaflutole or tembotrione selection; format: in vivo; settings: selection amount of herbicide
Text: Soybean transformation is achieved using methods well known in the art, such as the one described using the Agrobacterium tumefaciens mediated transformation soybean half-seed explants using essentially the method described by Paz et al. (2006), Plant cell Rep. 25:206. Transformants were identified using tembotrione or isoxaflutole as selection marker. The appearance of green shoots was observed, and documented as an indicator of tolerance to the herbicide isoxaflutole or tembotrione.

[1] = tested on: Pseudomonas fluorescens HPPD protein; test: brown color assay: HPPD extracts spotted on solid media containing tyrosine and an HPPD inhibitor; format: biochemical; settings: TBT, DKN and mesotrione 500-2000 uM, compared with PfHPPD and PfEvo33
Method: A specific, although non-limiting, type of assay that can be used to evaluate the HPPD sequences of the invention is a colorimetric assay. In this assay, a YT-broth-type culture medium with 1% agarose, 5 mM L-Tyrosine and 42 mM Succinate, which contains the selection agent for the vector pSE420 (Invitrogen, Karlsruhe, Germany) or a modified version of pSE420 (pSE420(RI)NX) is poured into deep well plates. E. coli culture in the exponential growth phase which contains the vector pSE420-HPPDx (HPPDx means any gene coding for a putative HPPD enzyme/protein) is applied to each well.
The HPPD PfEvo33 mutant (described in International Patent Application No PCT/US2013/59598 (filed on Sep. 13, 2013) and set forth herein as SEQ ID NO:5) was mutagenized at positions 334 and 336. Saturated mutagenesis of these positions was carried out using the QUIKCHANGE® lightning kit. Mutants were pooled and transformed into DH5alpha E. coli cells. Six hundred individual clones were screened for tolerance to the HPPD inhibitor tembotrione (TBT). The clones were grown in LB media plus kanamycin at 37 degrees C. in a shaker until an OD600 nm of 0.3 was reached. Cultures were then switched to 30 degrees C. and incubated for an additional 17 hours. Cultures were spun down and cell pellets resuspended in 10 mM Hepes/KOH pH 7.6, 4 mM MgCl2, 1 mM DTT. […]
The mutants were analyzed using a brown color assay. […]

[2] = tested on: Pseudomonas fluorescens HPPD protein; test: HGD assay: HPPD activity coupled to HGA dioxygenase, pI50 and type of inhibition (time-course); format: biochemical; settings: for tolerance (pI50) DKN: inhibitor diketonitrile (DKN); for tolerance (pI50) DKN / tolerance (pI50) MST / tolerance (pI50) TBT: HGD assay; for tolerance (pI50) MST: inhibitor mesotrione (MST); for tolerance (pI50) TBT: inhibitor tembotrione (TBT)
How it was run: (§1)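 Purified Pseudomonas fluorescens HPPD, room temperature. OD assay: 50 mM Tris-HCl pH 7.8, 0.5 mM HPP, 10 mM ascorbate, catalase, 24 min, remaining HPP derivatised with DNP, read at 405 nm, inhibitor 5.0×10^−6 to 5.0×10^−4 M. HGD assay: 200 mM Tris-HCl pH 7.6, 600 μM HPP, 20 μM FeSO4, coupled HGA dioxygenase, initial rates at 318 nm, inhibitor ≤100 μM, time-course gives inhibition type; pI50 from 4-parameter fits.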

T0 soybean plants = test: greenhouse spray test of T0 soybean plants for tolerance to mesotrione; format: in vivo; settings: mesotrione 3X field rate, 316 grams AI per hectare, seven days after treatment
Method: T0 soybean plants expressing an HPPD inhibitor tolerant enzyme of the present invention, along with a gene conferring tolerance to glyphosate and a gene conferring tolerance to glufosinate or having a “plant expression cassette”, which includes only an HPPD inhibitor tolerant enzyme of the present invention, were tested for tolerance to mesotrione. Prior greenhouse trials with the transgenic plants, soy transformants were routinely analyzed for the expression and presence of the transgenes using the ELISA protein detection method (see detailed description under item D and H). Only plants recovering in the selection media and having a detectable HPPD transgene protein expression were used for the herbicide tolerance analysis. A DeVries Tracker Sprayer was calibrated prior to each spraying. The chemical formulation used for mesotrione (MST) testing was Callisto® 4 SC formulation supplemented with ammonium sulfate and methylated rape seed oil (Actirob). Spray tests were conducted using 3× the field rate (equivalent to 9 fluid ounce per acre of the same herbicide formulation that containing 40% the active ingredient (AI), mesotrione), which equals 316 grams AI per hectare. Tolerance was evaluated one week after spraying. […] A tolerance rating of “0” was assigned to plants that their shoot apexes, newly emerged trifoliates and some axillary buds were completely bleached. A rating of “1” was assigned to plants having slight tolerance, i.e., the newest plant shoot tissues had some green leaves and are not bleached completely. A rating of “2” was assigned to plants showing moderate tolerance, i.e., more than 50% of the leaf area of the top three trifoliates showing no chlorosis or bleaching damage. A rating of “3” was assigned to plants showing nearly perfect tolerance, i.e., less than 10% of the leaf area showing chlorosis or very slight bleaching.

[3] = tested on: Pseudomonas fluorescens HPPD protein; test: OD assay: HPPD activity and pI50 from HPP remaining after derivatisation with DNP; format: biochemical; settings: for Activity DeltaE/24 min μg Protein: HPPD enzyme activity of the clone; for tolerance (pI50) DKN: inhibitor diketonitrile (DKN), negative log of molar concentration; for tolerance (pI50) MST: inhibitor mesotrione (MST)
How it was run: as §1

[4] = HT-single plant expression cassette
[5] = HT-triple plant expression cassette

Molecule	appearance of wild-type soybean shoots treated with the herbicide (soybean shoots)	brown color formation in presence of HPPD inhibitors [1]	mechanism of inhibition by diketonitrile (DKN), time-course of inhibition [2]	mechanism of inhibition by mesotrione (MST), time-course of inhibition [2]	mechanism of inhibition by tembotrione (TBT), time-course of inhibition [2]	tolerance (pI50) DKN [2]	tolerance (pI50) MST [2]	tolerance (pI50) TBT [2]	Number of T0 soybean plants with herbicide tolerance rating 0 (completely bleached) (T0 soybean plants; [4])	Number of T0 soybean plants with herbicide tolerance rating 1 (slight tolerance) (T0 soybean plants; [4])	Number of T0 soybean plants with herbicide tolerance rating 2 (moderate tolerance) (T0 soybean plants; [4])	Number of T0 soybean plants with herbicide tolerance rating 3 (nearly perfect tolerance) (T0 soybean plants; [4])	Number of T0 soybean plants with herbicide tolerance rating 0 (completely bleached) (T0 soybean plants; [5])	Number of T0 soybean plants with herbicide tolerance rating 1 (slight tolerance) (T0 soybean plants; [5])	Number of T0 soybean plants with herbicide tolerance rating 2 (moderate tolerance) (T0 soybean plants; [5])	Number of T0 soybean plants with herbicide tolerance rating 3 (nearly perfect tolerance) (T0 soybean plants; [5])	Activity DeltaE/24 min μg Protein [3] [DeltaE/24 min μg Protein]	tolerance (pI50) DKN [3]	tolerance (pI50) MST [3]	further results
CSc1c(C(F)(F)F)ccc(C(=O)Nc2nnnn2C)c1Cl [Cmpd. 4, 2-chloro-3-(methylsulfanyl)-N-(1-methyl-1H-tetrazol-5-yl)-4-(trifluoromethyl)benzamide]	–	–	–	–	–	–	–	–	–	–	–	–	–	–	–	–	–	–	–	leaf damage of control maize T0 events expressing EPSPS only, no HPPD variant (maize T0 events): 100%; leaf damage of non-transformed maize plants (maize T0 events): 100%
CS(=O)(=O)c1cc(C(F)(F)F)ccc1C(=O)c1cnoc1C1CC1 [isoxaflutole, (5-cyclopropyl-4-isoxazolyl)[2-(methylsulfonyl)-4-(trifluoromethyl)phenyl]methanone]	entirely bleached	–	–	–	–	–	–	–	–	–	–	–	–	–	–	–	–	–	–	–
CS(=O)(=O)c1ccc(C(=O)C2C(=O)CCCC2=O)c(Cl)c1COCC(F)(F)F [tembotrione, 2-[2-chloro-4-(methylsulfonyl)-3-[(2,2,2,-trifluoroethoxy)methyl]benzoyl]-1,3-cyclo-hexanedione]	entirely bleached	–	–	–	–	–	–	–	–	–	–	–	–	–	–	–	–	–	–	–
PfEvo43: PfHPPD variant E335P, G336F (protein, HPPD variant - PfEvo43, PfHPPD variant E335P, G336F) MADLYENPMGLMGFEFIEFASPTPGTLEPIFEIMGFTKVATHRSKNVHLYRQGEINLILNNEPNSIASYFAAEHGPSVCGMAFRVKDSQKAYNRALELGAQPIHIDTGPMELNLPAIKGIGGAPLYLIDRFGEGSSIYDIDFVYLEGVERNPVGAGLKVIDHLTHNVYRGRMVYWANFYEKLFNFREARYFDIKGEYTGLTSKAMSAPDGMIRIPLNEESSKGAGQIEEFLMQFNGEGIQHVAFLTDDLVKTWDALKKIGMRFMTAPPDTYYEMLEGRLPDHGEPVDQLQARGILLDGSSVEGDKRLLLQIFSETLMGPVFFEFIQRKGDDGFGPFNFKALFESIERDQVRRGVLTAD	–	darkest color	fully reversible inhibition	fully reversible inhibition	fully reversible inhibition	4.0	5.1	6.0	1	13	25	34	6	18	26	20	0.39	4.1	4.6	tolerance (pI50) Cmpd. 2 ([3]; inhibitor Cmpd. 2): >5.6
PfEvo44: PfHPPD variant E335P, G336Y (protein, HPPD variant - PfEvo44, PfHPPD variant E335P, G336Y) MADLYENPMGLMGFEFIEFASPTPGTLEPIFEIMGFTKVATHRSKNVHLYRQGEINLILNNEPNSIASYFAAEHGPSVCGMAFRVKDSQKAYNRALELGAQPIHIDTGPMELNLPAIKGIGGAPLYLIDRFGEGSSIYDIDFVYLEGVERNPVGAGLKVIDHLTHNVYRGRMVYWANFYEKLFNFREARYFDIKGEYTGLTSKAMSAPDGMIRIPLNEESSKGAGQIEEFLMQFNGEGIQHVAFLTDDLVKTWDALKKIGMRFMTAPPDTYYEMLEGRLPDHGEPVDQLQARGILLDGSSVEGDKRLLLQIFSETLMGPVFFEFIQRKGDDGFGPYNFKALFESIERDQVRRGVLTAD	–	darkest color	fully reversible inhibition	fully reversible inhibition	fully reversible inhibition	4.1	5.2	5.9	7	14	43	21	4	22	19	26	0.41	4.0	4.6	tolerance (pI50) TBT ([3]; inhibitor tembotrione (TBT)): >5.6
